# Reference: patent US20220098304A1 (JIANGSU HENGRUI MEDICINE, published 2022)
# Numbering of substitutions follows the chain as printed. Numbers in names are those of the source.
# B1: murine antibody M23 (antibody, V domains shown)
# VH: QVQLQQSGAELVRPGASVTLSCKASGYTFTDYEMHWVKQTPIHGLEWIGLIDPETGGTVYNQKFKDKTILTADKSSSTAYMEFRSLTSEDSAVYHCTRERFSYYGSTSDWYFDVWGTGTTVTVSS
# VL: DGLMTQTPLSLPVSLGDHASISCRSSQSLVHSNGNTYLEWYLQKPGQSPKLLIYKVSNRFSGVPDRFSGSGSGTDFTLKISRVEAEDLGIYYCFQGSHVPYTFGGGTKLEIK
# B2: murine antibody M32 (antibody, V domains shown)
# VH: QVQLQQSGAELVRPGASVTLSCKASDFTFTDYEIHWVKQTPVHGLEWIGLFDPETGGIVYNQKFKGKAILTADKSSNTAYMEFRSLTSEDSAVYYCTREGYNRDWYFDVWGTGTTVTVSS
# VL: B1 VL with G2V, H18Q, L29I, T102A
# B3: Hu33-1.IgG4AA (antibody, V domains shown)
# VH: EVQLVESGGGLVQPGGSLRLSCAASGFTFSSYAMSWVRQAPGKGLEWVATISGGGVDTYYQDNVQGRFTISRDNAKNSLYLQMNSLRAEDTAVYYCARPYGHGYFDVWGQGTTVTVSS
# VL: DIQMTQSPSSLSASVGDRVTITCRASQDINNFLNWYQQKPGKAPKLLIYYTSSLHSGVPSRFSGSGSGTDFTLTISSLQPEDFATYYCQQGNTLPWTFGGGTKVEIKR
# notes: Full-length IgG4-AA, kappa
# B4: Hu33-7.IgG4AA (antibody, V domains shown)
# VH: B3 VH
# VL: B3 VL with K42G, P44V, F71Y
# notes: Full-length IgG4-AA, kappa
# B5: Hu33-4.IgG4AA (antibody, V domains shown)
# VH: B3 VH
# VL: B3 VL with F71Y
# notes: Full-length IgG4-AA, kappa
# B6: Hu32a-29.IgG4AA (antibody, V domains shown)
# VH: EVQLVQSGAEVKKPGSSVKVSCKASGFTFSDYEIHWVRQAPGQGLEWMGLFDPETGGIVYNQKFKGRVTLTADKSTSTAYMELSSLRSEDTAVYYCTREGYNRDWYFDVWGQGTTVTVSS
# VL: DIVMTQTPLSLPVTPGEPASISCRSSQSLVHSTGNTYLEWYLQKPGQSPQLLIYKVSNRFSGVPDRFSGSGSGTDFTLKISRVEAEDVGVYYCFQGSHVPYTFGGGTKVEIKR
# notes: Full-length IgG4-AA, kappa
# B7: Hu32a-43.IgG4AA (antibody, V domains shown)
# VH: B6 VH with G26D
# VL: B6 VL
# notes: Full-length IgG4-AA, kappa
# B8: Hu32a-15.IgG4AA (antibody, V domains shown)
# VH: B6 VH with F27G, L70I, T97A
# VL: B6 VL
# notes: Full-length IgG4-AA, kappa
# B9: Hu32a-71.IgG4AA (antibody, V domains shown)
# VH: B6 VH with G26D, S30T, M48I, V68A, L83F
# VL: B6 VL
# notes: Full-length IgG4-AA, kappa
# B10: Hu32a-57.IgG4AA (antibody, V domains shown)
# VH: B6 VH with M48I, V68A, L83F
# VL: B6 VL
# notes: Full-length IgG4-AA, kappa
# B11: Hu23-1.IgG4AA (antibody)
# heavy: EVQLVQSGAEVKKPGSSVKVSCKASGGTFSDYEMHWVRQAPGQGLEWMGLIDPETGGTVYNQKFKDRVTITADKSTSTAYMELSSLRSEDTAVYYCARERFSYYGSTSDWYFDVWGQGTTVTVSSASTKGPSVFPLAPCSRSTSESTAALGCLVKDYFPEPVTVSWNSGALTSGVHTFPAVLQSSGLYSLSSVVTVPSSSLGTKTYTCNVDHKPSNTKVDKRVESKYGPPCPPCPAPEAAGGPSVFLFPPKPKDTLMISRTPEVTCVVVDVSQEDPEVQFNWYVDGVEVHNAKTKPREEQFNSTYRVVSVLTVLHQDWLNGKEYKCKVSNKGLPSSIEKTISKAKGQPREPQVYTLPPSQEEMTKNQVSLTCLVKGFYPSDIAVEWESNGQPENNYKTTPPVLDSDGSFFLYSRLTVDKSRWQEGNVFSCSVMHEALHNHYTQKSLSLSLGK
# light: DIVMTQTPLSLPVTPGEPASISCRSSQSLVHSNGNTYLEWYLQKPGQSPQLLIYKVSNRFSGVPDRFSGSGSGTDFTLKISRVEAEDVGVYYCFQGSHVPYTFGGGTKVEIKRTVAAPSVFIFPPSDEQLKSGTASVVCLLNNFYPREAKVQWKVDNALQSGNSQESVTEQDSKDSTYSLSSTLTLSKADYEKHKVYACEVTHQGLSSPVTKSFNRGEC
# notes: Full-length IgG4-AA (S228P, F234A, L235A), kappa
# B12: Hu23-12.IgG4AA (antibody, V domains shown)
# VH: EVQLVQSGAEVKKPGSSVKVSCKASGGTFSDYEMHWVRQAPGQGLEWMGLIDPETGGTVYNQKFKDRVTITADKSTSTAYMELSSLRSEDTAVYYCARERFSYYGSTSDWYFDVWGQGTTVTVSS
# VL: B6 VL with T33D
# notes: Full-length IgG4-AA, kappa; also called Hu23LCDR1 (N28D)
# B13: Hu23-6.IgG4AA (antibody)
# heavy: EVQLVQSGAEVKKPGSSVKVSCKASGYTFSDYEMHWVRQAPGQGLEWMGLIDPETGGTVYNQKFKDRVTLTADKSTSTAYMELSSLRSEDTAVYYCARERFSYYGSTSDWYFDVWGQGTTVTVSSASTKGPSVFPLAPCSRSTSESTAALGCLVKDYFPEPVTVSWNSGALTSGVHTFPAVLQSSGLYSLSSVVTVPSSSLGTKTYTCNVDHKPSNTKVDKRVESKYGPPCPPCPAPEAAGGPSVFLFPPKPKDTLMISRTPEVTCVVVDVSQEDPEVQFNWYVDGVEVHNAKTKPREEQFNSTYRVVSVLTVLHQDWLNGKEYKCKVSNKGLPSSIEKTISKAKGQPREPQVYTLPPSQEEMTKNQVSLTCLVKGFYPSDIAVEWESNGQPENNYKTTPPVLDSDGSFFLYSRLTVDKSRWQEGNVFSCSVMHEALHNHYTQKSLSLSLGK
# light: B11 light with I2G
# notes: Full-length IgG4-AA, kappa
# B14: Hu23-10.IgG4AA (antibody, V domains shown)
# VH: B12 VH
# VL: B6 VL with T33L
# notes: Full-length IgG4-AA, kappa; also called Hu23LCDR1 (N28L)
# B15: Hu23-4.IgG4AA (antibody)
# heavy: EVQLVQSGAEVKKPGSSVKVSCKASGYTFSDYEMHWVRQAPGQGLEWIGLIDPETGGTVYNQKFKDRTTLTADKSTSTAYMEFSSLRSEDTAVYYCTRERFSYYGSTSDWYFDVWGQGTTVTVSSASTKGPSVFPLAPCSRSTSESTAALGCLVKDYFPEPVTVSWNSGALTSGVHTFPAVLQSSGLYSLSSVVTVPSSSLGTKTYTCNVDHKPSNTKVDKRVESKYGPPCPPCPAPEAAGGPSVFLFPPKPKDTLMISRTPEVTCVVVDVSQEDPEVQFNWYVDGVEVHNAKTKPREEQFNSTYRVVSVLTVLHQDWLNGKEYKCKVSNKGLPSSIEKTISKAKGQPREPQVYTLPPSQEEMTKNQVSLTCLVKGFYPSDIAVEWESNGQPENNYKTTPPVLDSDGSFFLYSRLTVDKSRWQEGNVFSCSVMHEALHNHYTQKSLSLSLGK
# light: B11 light
# notes: Full-length IgG4-AA, kappa
# B16: Hu23-14.IgG4AA (antibody, V domains shown)
# VH: B12 VH
# VL: B6 VL with T33N, G34V
# notes: Full-length IgG4-AA, kappa; also called Hu23LCDR1 (G29V)
# B17: Hu23-13.IgG4AA (antibody, V domains shown)
# VH: B12 VH
# VL: B6 VL with T33N, G34A
# notes: Full-length IgG4-AA, kappa; also called Hu23LCDR1 (G29A)
# B18: Hu23-2.IgG4AA (antibody)
# heavy: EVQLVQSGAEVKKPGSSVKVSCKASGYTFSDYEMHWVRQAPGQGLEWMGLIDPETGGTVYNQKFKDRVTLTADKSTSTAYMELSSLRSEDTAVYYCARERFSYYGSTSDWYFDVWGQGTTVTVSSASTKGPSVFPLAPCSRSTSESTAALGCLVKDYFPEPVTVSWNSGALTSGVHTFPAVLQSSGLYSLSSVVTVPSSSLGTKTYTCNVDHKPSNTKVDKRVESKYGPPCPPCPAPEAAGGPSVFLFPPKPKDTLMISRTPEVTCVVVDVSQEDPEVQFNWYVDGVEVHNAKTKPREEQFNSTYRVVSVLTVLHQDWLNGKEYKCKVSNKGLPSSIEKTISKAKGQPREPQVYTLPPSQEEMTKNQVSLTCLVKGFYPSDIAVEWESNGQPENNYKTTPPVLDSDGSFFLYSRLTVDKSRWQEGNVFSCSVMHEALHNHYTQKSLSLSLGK
# light: B11 light
# notes: Full-length IgG4-AA, kappa
# B19: Hu23-3.IgG4AA (antibody)
# heavy: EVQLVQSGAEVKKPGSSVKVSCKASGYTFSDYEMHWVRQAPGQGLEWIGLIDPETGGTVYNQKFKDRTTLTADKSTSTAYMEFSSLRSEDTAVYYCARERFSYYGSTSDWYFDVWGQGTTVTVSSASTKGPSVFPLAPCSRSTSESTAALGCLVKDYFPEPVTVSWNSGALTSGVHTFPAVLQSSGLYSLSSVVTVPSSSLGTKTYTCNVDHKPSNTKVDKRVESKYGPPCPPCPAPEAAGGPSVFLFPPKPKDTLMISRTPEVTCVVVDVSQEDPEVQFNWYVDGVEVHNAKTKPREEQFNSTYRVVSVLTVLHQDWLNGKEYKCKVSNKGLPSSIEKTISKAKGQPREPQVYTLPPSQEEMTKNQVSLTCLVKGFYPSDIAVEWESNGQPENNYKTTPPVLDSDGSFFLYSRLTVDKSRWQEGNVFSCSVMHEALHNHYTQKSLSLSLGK
# light: B11 light
# notes: Full-length IgG4-AA, kappa
# B20: Hu23-7.IgG4AA (antibody)
# heavy: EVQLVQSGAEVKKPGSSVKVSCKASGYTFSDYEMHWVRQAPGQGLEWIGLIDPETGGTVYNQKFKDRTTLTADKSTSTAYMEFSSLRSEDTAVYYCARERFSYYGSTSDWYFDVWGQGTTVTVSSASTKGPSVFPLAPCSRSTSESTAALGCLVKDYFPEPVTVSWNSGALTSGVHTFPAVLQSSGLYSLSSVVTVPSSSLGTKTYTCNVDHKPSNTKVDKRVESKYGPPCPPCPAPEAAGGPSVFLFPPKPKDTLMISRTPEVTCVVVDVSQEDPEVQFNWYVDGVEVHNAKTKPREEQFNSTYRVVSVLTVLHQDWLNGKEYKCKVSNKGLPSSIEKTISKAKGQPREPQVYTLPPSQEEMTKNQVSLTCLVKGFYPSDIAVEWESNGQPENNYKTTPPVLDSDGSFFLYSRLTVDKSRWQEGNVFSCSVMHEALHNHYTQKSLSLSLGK
# light: B11 light with I2G
# notes: Full-length IgG4-AA, kappa
# B21: Hu23-9.IgG4AA (antibody, V domains shown)
# VH: B12 VH
# VL: B6 VL with T33Q
# notes: Full-length IgG4-AA, kappa; also called Hu23LCDR1 (N28Q)
# B22: Hu23-8.IgG4AA (antibody)
# heavy: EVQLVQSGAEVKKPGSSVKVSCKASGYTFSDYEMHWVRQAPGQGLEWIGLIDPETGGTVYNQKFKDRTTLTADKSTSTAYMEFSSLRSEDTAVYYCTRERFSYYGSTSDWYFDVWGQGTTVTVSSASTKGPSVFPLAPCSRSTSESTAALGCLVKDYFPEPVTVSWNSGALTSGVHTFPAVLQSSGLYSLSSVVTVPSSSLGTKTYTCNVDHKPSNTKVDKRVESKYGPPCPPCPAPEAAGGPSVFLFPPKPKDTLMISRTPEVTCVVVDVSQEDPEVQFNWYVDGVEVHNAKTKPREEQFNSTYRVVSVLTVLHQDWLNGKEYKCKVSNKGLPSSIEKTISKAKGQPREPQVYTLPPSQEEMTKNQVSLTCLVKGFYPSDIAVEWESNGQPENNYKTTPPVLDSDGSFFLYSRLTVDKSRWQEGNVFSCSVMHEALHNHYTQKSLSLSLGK
# light: B11 light with I2G
# notes: Full-length IgG4-AA, kappa
# B23: Hu23-5.IgG4AA (antibody)
# heavy: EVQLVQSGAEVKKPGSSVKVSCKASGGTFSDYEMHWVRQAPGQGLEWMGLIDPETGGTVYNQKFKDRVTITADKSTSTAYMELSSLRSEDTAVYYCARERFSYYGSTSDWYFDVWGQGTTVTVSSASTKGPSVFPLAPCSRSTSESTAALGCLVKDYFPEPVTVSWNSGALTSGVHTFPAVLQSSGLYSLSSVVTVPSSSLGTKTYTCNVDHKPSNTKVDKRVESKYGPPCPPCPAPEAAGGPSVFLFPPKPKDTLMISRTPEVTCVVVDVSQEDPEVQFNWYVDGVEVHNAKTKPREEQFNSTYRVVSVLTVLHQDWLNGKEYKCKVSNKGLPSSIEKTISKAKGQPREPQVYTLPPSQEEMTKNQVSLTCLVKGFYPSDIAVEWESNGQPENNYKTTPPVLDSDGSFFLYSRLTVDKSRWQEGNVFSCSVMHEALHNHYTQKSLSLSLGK
# light: B11 light with I2G
# notes: Full-length IgG4-AA, kappa
# B24: murine antibody M33 (antibody, V domains shown)
# VH: KVMLVESGGGLVKPGGSLKLSCAASGFTFSSYAMSWVRQTPEKRLEWVATISGGGVDTYYQDNVQGRFTISRDNAKNTLYLQMSSLRSEDTALYYCASPYGHGYFDVWGTGTTVTVSS
# VL: DIQMTQTTSSLSASLGDRVTISCRASQDINNFLNWYQQKPDGTVKLLIYYTSSLHSGVPSRFSGSGSGTDYSLTISNLEQEDIATYFCQQGNTLPWTFGGGTKLEIK
# Target: T1, Human PD-1-His protein (Cat. #10377H08H, Sino Biological) (human, UniProt Q15116 25-167)
# T1 construct: Bought protein; also called hPD-1-His; hu PD-1-his; not shown: His tag of the bought protein
# Test: SPR (Biacore), antibody captured on Protein A chip, PD-1 in flow
# Source text: IgG was affinity captured by using a Protein A biosensor chip (Cat. #29127556, GE). Human PD-1 antigen (Cat. #10377H08H, Sino Biological) and Cyno PD-1 antigen (purchased from Sino Biological) flowed across the surface of the chip, and the binding and dissociation curves were obtained by real time detection of PD-1 antibody and antigen PD-1 reaction signals by a Biacore T200 instrument. After the dissociation of each experimental cycle was completed, the biosensor chip was washed and regenerated with 10 mM Glycine-HCl pH 1.5 buffer. The experimental buffer system was 1×HBS-EP buffer solution (Cat #BR-1001-88, GE). After the experiment, GE Biacore T200 Evaluation version 3.0 software was used to fit the data with a (1:1) Langmuir model, and the affinity value was obtained.
# T1 sequence (Q15116 25-167 limits assumed): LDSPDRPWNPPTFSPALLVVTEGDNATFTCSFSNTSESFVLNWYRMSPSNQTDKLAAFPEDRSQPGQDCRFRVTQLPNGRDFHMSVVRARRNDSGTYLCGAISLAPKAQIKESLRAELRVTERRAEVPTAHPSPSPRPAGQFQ
Kd,koff,kon,Binder
2.89 nM,0.000132 s⁻¹,45700 M⁻¹ s⁻¹,B1
5.3 nM,0.000415 s⁻¹,78300 M⁻¹ s⁻¹,B2
19.3 nM,0.00128 s⁻¹,66100 M⁻¹ s⁻¹,B3
33.8 nM,0.0026 s⁻¹,76900 M⁻¹ s⁻¹,B4
31.4 nM,0.00255 s⁻¹,81100 M⁻¹ s⁻¹,B5
7.86 nM,0.00062 s⁻¹,78900 M⁻¹ s⁻¹,B6
8.16 nM,0.000685 s⁻¹,83900 M⁻¹ s⁻¹,B7
51.4 nM,0.00252 s⁻¹,48900 M⁻¹ s⁻¹,B8
4.61 nM,0.000396 s⁻¹,86000 M⁻¹ s⁻¹,B9
7.85 nM,0.000624 s⁻¹,79400 M⁻¹ s⁻¹,B10
3.2 nM,0.00011 s⁻¹,34300 M⁻¹ s⁻¹,B11
2.02 nM,0.00011 s⁻¹,54500 M⁻¹ s⁻¹,B12
5.57 nM,0.000155 s⁻¹,27900 M⁻¹ s⁻¹,B13
2.77 nM,0.000153 s⁻¹,55100 M⁻¹ s⁻¹,B14
3.39 nM,0.000144 s⁻¹,42400 M⁻¹ s⁻¹,B15
2.22 nM,0.000161 s⁻¹,72300 M⁻¹ s⁻¹,B16
2.88 nM,0.000122 s⁻¹,42400 M⁻¹ s⁻¹,B17
5.86 nM,0.000161 s⁻¹,27400 M⁻¹ s⁻¹,B18
5.46 nM,0.00016 s⁻¹,29300 M⁻¹ s⁻¹,B19
5.97 nM,0.000166 s⁻¹,27700 M⁻¹ s⁻¹,B20
2.15 nM,0.000132 s⁻¹,61600 M⁻¹ s⁻¹,B21
3.56 nM,0.000147 s⁻¹,41100 M⁻¹ s⁻¹,B22
3.82 nM,0.000114 s⁻¹,29900 M⁻¹ s⁻¹,B23
0.737 nM,0.000227 s⁻¹,308000 M⁻¹ s⁻¹,B24
